Results from publication PMC11561763.

Biological target: glutathione S-transferase fusion from pGEX-6P1 possessing a C-terminal optimized tetracysteine motif (GST-TC12)
Assay: SEC; Superdex 75 Increase 10/300, 50 mM Tris pH 7.5, 150 mM NaCl; quenched one-pot ligation mixtures (Ub or SUMO, SrtCrAsH, eSrtA, GST-TC12); peaks collected and analysed by ESI-MS

Sequence of glutathione S-transferase fusion from pGEX-6P1 possessing a C-terminal optimized tetracysteine motif (GST-TC12) (P08515 2-218): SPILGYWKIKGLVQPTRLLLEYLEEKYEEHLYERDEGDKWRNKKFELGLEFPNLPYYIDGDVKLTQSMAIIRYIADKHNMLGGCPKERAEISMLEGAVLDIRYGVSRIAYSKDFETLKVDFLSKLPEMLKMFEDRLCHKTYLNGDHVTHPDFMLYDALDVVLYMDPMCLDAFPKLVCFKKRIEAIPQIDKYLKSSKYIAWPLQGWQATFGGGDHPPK

glutathione S-transferase fusion from pGEX-6P1 possessing a C-terminal optimized tetracysteine motif (GST-TC12) (natural protein)
stoichiometry N: 2
